Consider one sequence from publication PMC5527020.

One data set concerns HCV NS3. The experiment in a line: magnetic-bead pull-down with q-PCR. Conditions: BD buffer: 50 mM NaH2PO4 pH 8.0, 150 mM NaCl, 5 mM KCl, 2 mM MgCl2, 0.05% Tween-20; room temperature, 30 min; aptamer heated to 95 C and cooled at 4 C.
Data set [1] deals with Hepatitis B surface antigen (HBs Ag). Kind of data set: magnetic-bead pull-down with q-PCR. Conditions: BD buffer: 50 mM NaH2PO4 pH 8.0, 150 mM NaCl, 5 mM KCl, 2 mM MgCl2, 0.05% Tween-20; room temperature, 30 min; aptamer heated to 95 C and cooled at 4 C.

By Kd is commonly meant a measure of binding affinity in units of concentration.

Consider “AGCAGCACAGAGGTCCTGCATCACGAAGCCTGGCAGCGTGCTACCGTGAA [MP-1]”, for which the Kd in the data set with HCV NS3 is 23.3 nM; in data set [1], 28.3 nM.
